{"source": "paper PMC7375812", "about": "“Molecular determinants of large cargo transport into the nucleus” (eLife, 2020)", "proteins": {"B1": {"name": "MS2^S37P capsid (bacteriophage MS2 coat protein with S37P and T15C) (natural protein)", "chain": "MASNFTQFVLVDNGGCGDVTVAPSNFANGVAEWISSNPRSQAYKVTCSVRQSSAQNRKYTIKVEVPKVATQTVGGVELPVAAWRSYLNMELTIPIFATNSDCELIVKAMQGLLKDGNPIPSAIAANSGIY", "modifications": "the introduced cysteine (T15C) coupled by maleimide to Alexa Fluor 647 or to the NLS peptide Mal-…, in a share of the copies each", "notes": "coat protein of bacteriophage MS2; The NLS peptide is a branch on the cysteine, not part of the chain; source: E. coli BL21 AI, purified (PEI, ammonium sulphate, tangential flow, size exclusion after labelling); copies: 60"}, "B2": {"name": "MS2 capsid (wild-type bacteriophage MS2 coat protein with T15C) (natural protein)", "chain": "B1 chain with P38S", "modifications": "the introduced cysteine (T15C) coupled by maleimide to Alexa Fluor 647 or to the NLS peptide Mal-…, in a share of the copies each", "notes": "coat protein of bacteriophage MS2; The NLS peptide is a branch on the cysteine, not part of the chain; source: E. coli BL21 AI, purified (PEI, ammonium sulphate, tangential flow, size exclusion after labelling); copies: 180"}}, "target": "the molecule itself", "assay": "negative-stain electron microscopy; purified (and labelled) capsids adsorbed on glow-discharged carbon-coated grids, 2% uranyl acetate", "note": "Where a chain is given by its changes, count along the chain named. Names may count otherwise."}
{"protein": "B1", "values": [{"measurement": "binding result", "result": "binds"}]}
{"protein": "B2", "values": [{"measurement": "binding result", "result": "binds"}]}
